Measurements reported in patent US20150344570A1 (published 2015).

T1: FcγRIIa H extracellular domain with C-terminal His tag (human, UniProt P12318 34-217)
T1 construct: extracellular domain; Soluble receptor, H131 allotype; also called FcgRIIa H; FcgRIIaH; not shown: His tag at the C terminus
T1 sequence (looked up): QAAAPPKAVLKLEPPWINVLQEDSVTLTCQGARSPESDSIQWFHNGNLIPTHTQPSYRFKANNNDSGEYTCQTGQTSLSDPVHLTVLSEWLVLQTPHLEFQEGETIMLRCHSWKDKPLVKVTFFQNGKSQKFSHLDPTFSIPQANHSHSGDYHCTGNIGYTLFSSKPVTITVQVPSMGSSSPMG

T2: FcγRIIa R extracellular domain with C-terminal His tag (human, UniProt P12318 34-217)
T2 construct: extracellular domain; Soluble receptor, R131 allotype; also called FcgRIIa R; FcgRIIaR; not shown: His tag at the C terminus
T2 sequence (looked up): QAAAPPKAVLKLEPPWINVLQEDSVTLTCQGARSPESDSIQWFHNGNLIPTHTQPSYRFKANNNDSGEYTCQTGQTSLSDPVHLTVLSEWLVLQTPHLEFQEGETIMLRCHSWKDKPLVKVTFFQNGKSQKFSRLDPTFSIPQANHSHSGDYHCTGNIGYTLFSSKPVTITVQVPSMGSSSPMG


What was measured:
[1] = molecular target: T1, FcγRIIa H extracellular domain with …; test: SPR (Biacore); ratio KD for FcγRIIb / KD for FcγRIIa H
Description: (§1) These antibodies were assessed for the binding activity to each FcγR according to the method described in Reference Example 2.
(§2) Analysis of interaction between objective antibody and the FcγR was carried out using Biacore T100 (GE Healthcare). HBS-EP+ (GE Healthcare) was used as the running buffer, and the measurement temperature was set to 25° C. Chips produced by immobilizing the antigen peptide by the amine coupling method to a Series S Sencor Chip CM5 (GE Healthcare), or alternatively, chips produced by allowing preliminarily biotinylated antigen peptides to interact with and immobilize onto a Series S Sensor Chip SA (certified) (GE Healthcare) were used. Antibodies of interest were captured onto an antigen peptide-immobilized chip, and allowed to interact to each FcγR diluted with running buffer. To regenerate and repeatedly use the chip, the antibodies captured on the chip were washed off by reacting 10 mM glycine-HCl, pH 1.5.

[2] = molecular target: T2, FcγRIIa R extracellular domain with …; test: SPR (Biacore); ratio KD for FcγRIIb / KD for FcγRIIa R
Description: as §1, §2

Row | Binder | A/I ratio [1] | A/I ratio [2]
1 | GpH7-Kn032/GpH7-Hl032/GpL16-k0 (antibody, human IgG1, kappa, Anti-glypican-3 IgG1, knobs-into-holes; both H chains carry S239D/A330L/I332E; also called Kn032/Hl032) heavy 1: QVQLVQSGAEVKKPGASVTVSCKASGYTFTDYEMHWIRQPPGEGLEWIGAIDPKTGDTAYSESFQDRVTLTADKSTSTAYMELSSLTSEDTAVYYCTRFYSYTYWGQGTLVTVSSASTKGPSVFPLAPSSKSTSGGTAALGCLVKDYFPEPVTVSWNSGALTSGVHTFPAVLQSSGLYSLSSVVTVPSSSLGTQTYICNVNHKPSNTKVDKKVEPKSCDKTHTCPPCPAPELLGGPDVFLFPPKPKDTLMISRTPEVTCVVVDVSHEDPEVKFNWYVDGVEVHNAKTKPREEQYNSTYRVVSVLTVLHQDWLNGKEYKCKVSNKALPLPEEKTISKAKGQPREPQVCTLPPSRDELTKNQVSLWCLVKGFYPSDIAVEWESNGQPENNYKTTPPVLDSDGSFFLYSKLTVDKSRWQQGNVFSCSVMHEALHNHYTQKSLSLSP heavy 2: QVQLVQSGAEVKKPGASVTVSCKASGYTFTDYEMHWIRQPPGEGLEWIGAIDPKTGDTAYSESFQDRVTLTADKSTSTAYMELSSLTSEDTAVYYCTRFYSYTYWGQGTLVTVSSASTKGPSVFPLAPSSKSTSGGTAALGCLVKDYFPEPVTVSWNSGALTSGVHTFPAVLQSSGLYSLSSVVTVPSSSLGTQTYICNVNHKPSNTKVDKKVEPKSCDKTHTCPPCPAPELLGGPDVFLFPPKPKDTLMISRTPEVTCVVVDVSHEDPEVKFNWYVDGVEVHNAKTKPREEQYNSTYRVVSVLTVLHQDWLNGKEYKCKVSNKALPLPEEKTISKAKGQPREPQVYTLPPSRCELTKNQVSLSCAVKGFYPSDIAVEWESNGQPENNYKTTPPVLDSDGSFFLVSKLTVDKSRWQQGNVFSCSVMHEALHNHYTQKSLSLSP light: DIVMTQSPLSLPVTPGEPASISCQASESLVHSNRNTYLHWYLQKPGQSPQLLIYKVSNRFSGVPDRFSGSGSGTDFTLKISRVEAEDVGVYYCSQNTHVPPTFGQGTKVEIERTVAAPSVFIFPPSDEQLKSGTASVVCLLNNFYPREAKVQWKVDNALQSGNSQESVTEQDSKDSTYSLSSTLTLSKADYEKHKVYACEVTHQGLSSPVTKSFNRGEC | 0.93 | 1.8
2 | GpH7-Kn037/GpH7-Hl036/GpL16-k0 (antibody, human IgG1, kappa, Anti-glypican-3 IgG1, knobs-into-holes; also called Kn037/Hl036) heavy 1: QVQLVQSGAEVKKPGASVTVSCKASGYTFTDYEMHWIRQPPGEGLEWIGAIDPKTGDTAYSESFQDRVTLTADKSTSTAYMELSSLTSEDTAVYYCTRFYSYTYWGQGTLVTVSSASTKGPSVFPLAPSSKSTSGGTAALGCLVKDYFPEPVTVSWNSGALTSGVHTFPAVLQSSGLYSLSSVVTVPSSSLGTQTYICNVNHKPSNTKVDKKVEPKSCDKTHTCPPCPAPELLAGPDVFLFPPKPKDTLMISRTPEVTCVVVDVSHEDPEVKFNWYVDGVEVHNAKTKPREEQYNSTYRVVSVLTVLHQDWLNGKEYKCKVSNKALPAPEEKTISKAKGQPREPQVCTLPPSRDELTKNQVSLWCLVKGFYPSDIAVEWESNGQPENNYKTTPPVLDSDGSFFLYSKLTVDKSRWQQGNVFSCSVMHEALHNHYTQKSLSLSP heavy 2: QVQLVQSGAEVKKPGASVTVSCKASGYTFTDYEMHWIRQPPGEGLEWIGAIDPKTGDTAYSESFQDRVTLTADKSTSTAYMELSSLTSEDTAVYYCTRFYSYTYWGQGTLVTVSSASTKGPSVFPLAPSSKSTSGGTAALGCLVKDYFPEPVTVSWNSGALTSGVHTFPAVLQSSGLYSLSSVVTVPSSSLGTQTYICNVNHKPSNTKVDKKVEPKSCDKTHTCPPCPAPELLAGPDVFLFPPKPKDTLMISRTPEVTCVVVDVSHEDPEVKFNWYVDGVEVHNAKTKPREEQYNSTYRVVSVLTVLHQDWLNGKEYKCKVSNKALPAPEEKTISKAKGQPREPQVYTLPPSRCELTKNQVSLSCAVKGFYPSDIAVEWESNGQPENNYKTTPPVLDSDGSFFLVSKLTVDKSRWQQGNVFSCSVMHEALHNHYTQKSLSLSP light: DIVMTQSPLSLPVTPGEPASISCQASESLVHSNRNTYLHWYLQKPGQSPQLLIYKVSNRFSGVPDRFSGSGSGTDFTLKISRVEAEDVGVYYCSQNTHVPPTFGQGTKVEIERTVAAPSVFIFPPSDEQLKSGTASVVCLLNNFYPREAKVQWKVDNALQSGNSQESVTEQDSKDSTYSLSSTLTLSKADYEKHKVYACEVTHQGLSSPVTKSFNRGEC | 8.6 | 13

Continued, values first:

Row | A/I ratio [1] | A/I ratio [2] | Binder
3 | 9.5 | 22 | GpH7-Kn045/GpH7-Hl048/GpL16-k0 (antibody, human IgG1, kappa, Heterodimerized anti-glypican-3 IgG1, knobs-into-holes; also called Kn045/Hl048) heavy 1: QVQLVQSGAEVKKPGASVTVSCKASGYTFTDYEMHWIRQPPGEGLEWIGAIDPKTGDTAYSESFQDRVTLTADKSTSTAYMELSSLTSEDTAVYYCTRFYSYTYWGQGTLVTVSSASTKGPSVFPLAPSSKSTSGGTAALGCLVKDYFPEPVTVSWNSGALTSGVHTFPAVLQSSGLYSLSSVVTVPSSSLGTQTYICNVNHKPSNTKVDKKVEPKSCDKTHTCPPCPAPEYYAGPSVFLFPPKPKDTLMISRTPEVTCVVVDVSDEDPEVKFNWYVDGVEVHNAKTKPREEQYNATYRVVSVLTVLHQDWLNGKEYKCKVSNKALPAPIEKTISKAKGQPREPQVCTLPPSRDELTKNQVSLWCLVKGFYPSDIAVEWESNGQPENNYKTTPPVLDSDGSFFLYSKLTVDKSRWQQGNVFSCSVMHEALHNHYTQKSLSLSP heavy 2: QVQLVQSGAEVKKPGASVTVSCKASGYTFTDYEMHWIRQPPGEGLEWIGAIDPKTGDTAYSESFQDRVTLTADKSTSTAYMELSSLTSEDTAVYYCTRFYSYTYWGQGTLVTVSSASTKGPSVFPLAPSSKSTSGGTAALGCLVKDYFPEPVTVSWNSGALTSGVHTFPAVLQSSGLYSLSSVVTVPSSSLGTQTYICNVNHKPSNTKVDKKVEPKSCDKTHTCPPCPAPELLAGPDVFLFPPKPKDTLMISRTPEVTCVVVDVSHEDPEVKFNWYVDGVEVHNAKTKPREEQYNSTYRVVSVLTVLHQDWLNGKEYKCKVSNKALPKPEEKTISKAKGQPREPQVYTLPPSRCELTKNQVSLSCAVKGFYPSDIAVEWESNGQPENNYKTTPPVLDSDGSFFLVSKLTVDKSRWQQGNVFSCSVMHEALHNHYTQKSLSLSP light: DIVMTQSPLSLPVTPGEPASISCQASESLVHSNRNTYLHWYLQKPGQSPQLLIYKVSNRFSGVPDRFSGSGSGTDFTLKISRVEAEDVGVYYCSQNTHVPPTFGQGTKVEIERTVAAPSVFIFPPSDEQLKSGTASVVCLLNNFYPREAKVQWKVDNALQSGNSQESVTEQDSKDSTYSLSSTLTLSKADYEKHKVYACEVTHQGLSSPVTKSFNRGEC
4 | 8.3 | 18 | GpH7-Kn045/GpH7-Hl055/GpL16-k0 (antibody, human IgG1, kappa, Heterodimerized anti-glypican-3 IgG1, knobs-into-holes; also called Kn045/Hl055) heavy 1: QVQLVQSGAEVKKPGASVTVSCKASGYTFTDYEMHWIRQPPGEGLEWIGAIDPKTGDTAYSESFQDRVTLTADKSTSTAYMELSSLTSEDTAVYYCTRFYSYTYWGQGTLVTVSSASTKGPSVFPLAPSSKSTSGGTAALGCLVKDYFPEPVTVSWNSGALTSGVHTFPAVLQSSGLYSLSSVVTVPSSSLGTQTYICNVNHKPSNTKVDKKVEPKSCDKTHTCPPCPAPEYYAGPSVFLFPPKPKDTLMISRTPEVTCVVVDVSDEDPEVKFNWYVDGVEVHNAKTKPREEQYNATYRVVSVLTVLHQDWLNGKEYKCKVSNKALPAPIEKTISKAKGQPREPQVCTLPPSRDELTKNQVSLWCLVKGFYPSDIAVEWESNGQPENNYKTTPPVLDSDGSFFLYSKLTVDKSRWQQGNVFSCSVMHEALHNHYTQKSLSLSP heavy 2: QVQLVQSGAEVKKPGASVTVSCKASGYTFTDYEMHWIRQPPGEGLEWIGAIDPKTGDTAYSESFQDRVTLTADKSTSTAYMELSSLTSEDTAVYYCTRFYSYTYWGQGTLVTVSSASTKGPSVFPLAPSSKSTSGGTAALGCLVKDYFPEPVTVSWNSGALTSGVHTFPAVLQSSGLYSLSSVVTVPSSSLGTQTYICNVNHKPSNTKVDKKVEPKSCDKTHTCPPCPAPELLAGPDVFLFPPKPKDTLMISRTPEVTCVVVDVSHEDPEVKFNWYVDGVEVHNAKTKPREELYNSTYRVVSVLTVLHQDWLNGKEYKCKVSNKALPMPEEKTISKAKGQPREPQVYTLPPSRCELTKNQVSLSCAVKGFYPSDIAVEWESNGQPENNYKTTPPVLDSDGSFFLVSKLTVDKSRWQQGNVFSCSVMHEALHNHYTQKSLSLSP light: DIVMTQSPLSLPVTPGEPASISCQASESLVHSNRNTYLHWYLQKPGQSPQLLIYKVSNRFSGVPDRFSGSGSGTDFTLKISRVEAEDVGVYYCSQNTHVPPTFGQGTKVEIERTVAAPSVFIFPPSDEQLKSGTASVVCLLNNFYPREAKVQWKVDNALQSGNSQESVTEQDSKDSTYSLSSTLTLSKADYEKHKVYACEVTHQGLSSPVTKSFNRGEC
